Measured values taken from article PMC3360062.

Substrate: C[C@H](N)C(=O)O
Test: purified protein
Conditions: 0.5 mM ATP, 10 mM MgCl2, 50 mM Tris-HCl pH 7.5, 25°C, 0.25 µM enzyme, 5 min, alanine 0.1-0.5 mM

B1: Sare0718 (Salinispora arenicola) (protein)
chain: QRTSTTTTAETTTSTRATGRTNLPASPYPIHPPEPLATLSPRDRALFVRFGYGPTESVAHTHIHHAFEYWATVTPEAVAVEDGDETITYRELDQRADQLAARLAASGVRPGDRVALFVRRSIPMVVGLLAALKAGAAYVPQHVDTVPPAQLQHVIHTADTRVIMTLAATADRIPVPDGHVVITLDDLGKTEPTDLIAGRFTPATPLPPDSPCYVLFTSGSTGRPNGVVVTHRNICNILLTSPGNLGIQPGWKVGQILNIAFDMASWEILGALSHGATLVIRGSDIVETMSRVDVIIATPTVLSRTDPDRCQRVKVVAVAGEPCPRALADAWSAVCAFYNACGPTETTIVNTMSRHRPTAERLTIGRPTPNNTVYVLDADLRPCPIGTVGEMWAGGDCVSAGYLSNARLTAERYALDPFLGHGRLMFRTRDLGRWTPDGELEHFGRTDDQVKVRGFRVELDSVSAILEAVPGCTRAATIKLDDRSLVSFVAPAEVDPDLARMAVSEALPYYCVPETVHTLPELPTTSRGKIDKLALRRLVTRQDQLVTSQEQGATR
- Km: 116.4 ± 15.9 µM
- kcat: 0.209893 ± 0.00852 s⁻¹
